# Laboratory results from the supplement of paper PMC9170038.
# System: MS2 coat protein
# Assay: apparent KD of MS2 coat protein; designed switch direction (-1 OFF switch, 1 ON switch): -1; higher = weaker reporter binding
# Procedure, shortened: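 Apparent KD, taken as the median over clusters for each design, was obtained by curve-fitting normalised cluster fluorescence. Designed RNA switches had been transcribed on Illumina chips by stalled E. coli RNA polymerase and titrated with SNAP-549-labelled MS2 coat protein, doubling from 0.7 or 1.5 nM to 3 µM.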
# [1] = Eterna round: R95, input ligand: microRNA oligo, concentration not stated
# [2] = input ligand: microRNA oligo, concentration not stated
# [3] = Eterna round: R95, input ligand: FMN 200 uM
# [4] = Eterna round: R95, input ligand: none
Sequence,apparent KD of MS2 coat protein [1],apparent KD of MS2 coat protein (input ligand: FMN 200 uM),apparent KD of MS2 coat protein [2],apparent KD of MS2 coat protein (input ligand: none),apparent KD of MS2 coat protein [3],apparent KD of MS2 coat protein [4]
AAAAAACAAGGAUAUACGCAGGAGGGUUGUCUUAAUUUUUGACAUGAGGAUCACCCAUGUAGAAGGUGUUAAAA [JR_Exclusion2_Sub013] (puzzle: Exclusion 2),220 nM,–,–,–,–,–
"AAAAAACAUGAGGAUCACCCAUGUGAGGAUAUCUGUAUUCAAUCCUCGGAUUGAAUACAGAGAAGGCACAUGGG [Ex1: 609] (Eterna round: R96, puzzle: Exclusion 1)",–,48.5 nM,29.2 nM,27.8 nM,–,–
AAAAAGCGAGGAUAUGCAUAAGGACCCGGGAGGGAAGUCGAACAUGAGGAUCACCCAUGUAGAAGGCGCAAAAA [Exclss2-IV] (puzzle: Exclusion 2),11.5 nM,–,–,–,16 nM,15.4 nM
AAAAAGGUAGGAUAUACGAAAAAAAAGGGUAGAAAAAAAACACAUGAGGAUCACCCAUGUAGAAGGACCAAAAC [salish99_ex2_r3_046] (puzzle: Exclusion 2),33.4 nM,–,–,–,66.7 nM,30.2 nM
"AAAACAAAAGGAUAUACAUGAGGAUCACCCAUGUGGCAUAAAAUCGCCGCUAAACCAUGUAGAAGGUUUGCGAA [EX3 A.6] (Eterna round: R97, puzzle: Exclusion 3)",–,25.5 nM,–,19.6 nM,–,–
"AAAACGGACCGAGGAUAUACACGAUAUCUUUGCGUAGAAGGCGGACCGGCGACUUGAGGAUCACCCAAGUGUCCUCUUUUGCGG [Mutated MS2 EX1.4] (Eterna round: R96, puzzle: Exclusion NG 1)",–,323 nM,110 nM,175 nM,–,–
"AAAACUCACGUAGGAUAUCAUUCCUUAAGGUAGUGAGAAGGACGUGACUACAUGUCCUUGAACAUGAGGAUCACCCAUGUAGGC [Cerama] (Eterna round: R96, puzzle: Exclusion NG 1)",–,–,36.5 nM,–,–,–
AAAAGAACAGGAUAUUCGGGAAAUAACAUGAGGAUCACCCAUGUUAACGCGGGUGAGAACGAAGAAGGGUUCUAAA [Atusceon] (puzzle: Exclusion 5),96.4 nM,–,–,–,114 nM,93.1 nM
AAAAGAAGUGUUAGGAUAUGUGGAAGUAGAAAGACACAGAAGGGACAUGAGGAUCACCCAUGUGGCCAAAGAAC [Vecedies] (puzzle: Brourd's mod of Exclusion 4),15.6 nM,–,–,–,17.3 nM,15.5 nM
AAAAGAUGAGGAUAUAUAUGGAAUCCAAGGCAUGUGCUCUCACAUGAGGAUCACCCAUGUAGAAGGCAUCUGCC [Laxetera] (puzzle: Exclusion 2),9.79 nM,–,–,–,–,–
"AAAAGGCGAGGAUAUACAUGAGGAUCACCCAUGUGAAAGAAAGAAAGAAAGAAGAAAGGUAGAAGGCGCAAAGA [Mine, also!] (puzzle: Exclusion 3)",42.6 nM,–,–,–,83.6 nM,67 nM
AAAAGGUCAGGAUAUCCAAGAAAAGAAAAGAAAAGAAAAGAGGAGAAGGGACAUGAGGAUCACCCAUGUAAAAG [Default title] (puzzle: Exclusion 4),42.7 nM,–,–,–,39 nM,38 nM
AAAAUGCAAGGAUAUCGCGAUAAAUACAUGAGGAUCACCCAUGUGAUUACGUGGGCACGGCGAGAAGGUGCUAAAA [Amadius] (puzzle: Exclusion 5),26.1 nM,–,–,–,119 nM,33.8 nM
"AAAAUUGUAGGAUAUUAGGCAGACAACAUGAGGAUCACCCAUGUCCGUGAUCUUAGGCACUGAGAAGGAUAAGCCU [Eternabot (Original) Solution 23] (Eterna round: R97, puzzle: Exclusion 5)",–,147 nM,–,159 nM,–,–
"AAACAAACGGGAGGAUAUCGACAUAUUCAACUGCGAGAAGGCCCAAAAGACAUGAGGAUCACCCAUGUAAACCGGGUGAGAAAU [Rimabi] (Eterna round: R96, puzzle: Exclusion NG 1)",–,934 nM,185 nM,215 nM,–,–
"AAACCCUGAGGAUAUACAUAACAACAAACCCUCACGUGCCAACAUGAGGAUCACCCAUGUAGAAGGCAGGCCAA [Mod R3 Insanara 6 - Jieux - Exclusion 2] (Eterna round: R97, puzzle: Exclusion 2)",–,64.3 nM,–,18.7 nM,–,–
AAACCGCAUGUCAGGAUAUCCAGUCCGACUAGCUAGGAGAAGGGACAUGAGGAUCACCCAUGUUUCAUGGCUCG [Anveonat] (puzzle: Brourd's mod of Exclusion 4),19.6 nM,–,–,–,37.6 nM,19 nM
"AAACCGGGCGCACCUCAGUCACAUGAGGAUCACCCAUGUUCUGAGGAUAUGCAUCCAAACGGAACGCAGAAGGCGGAACGUAAC [Bibidianer] (Eterna round: R96, puzzle: Exclusion NG 3)",–,10.5 nM,8.52 nM,13 nM,–,–

Sequence,apparent KD of MS2 coat protein [1],apparent KD of MS2 coat protein (input ligand: FMN 200 uM),apparent KD of MS2 coat protein [2],apparent KD of MS2 coat protein (input ligand: none),apparent KD of MS2 coat protein [3],apparent KD of MS2 coat protein [4]
AAACCUAUAGGAUAUACAUGAGGAUCACCCAUGUUGCGAUUUUUUAGGUAACAGAUCCGUAGAAGGGUAGGGCA [Retebi] (puzzle: Exclusion 3),28.3 nM,–,–,–,–,–
AAACUAGUAGAGGAUAUUCCAGGCAGUGUUUGAGAAGAAGGCUACACAUGAGGAUCACCCAUGUGGCCUGGUGG [Riedbi] (puzzle: Exclusion 6),12.8 nM,–,–,–,–,–
AAAGAACAUGAGGAUCACCCAUGUGAGGAUAUGUAAGGAUAGGACCGAAGAAGCGAGAACAGAAGGCACAGAGG [JR_Exclu1_Sub069] (puzzle: Exclusion 1),23.4 nM,–,–,–,35 nM,18.6 nM
AAAGAGCGAGGAUAUACGUAUCGGUGCGGCCAGCCGAUGUGACAUGAGGAUCACCCAUGUAGAAGGCGCAGAAA [Excls2-IX] (puzzle: Exclusion 2),23.4 nM,–,–,–,–,–
"AAAGGACGAGGAUAUACAUGAGGAUCACCCAUGUAAAAAGCAUAAUAAAAUAACUUAUGUAGAAGGCGUCCAAA [Mat - Exclusion 3 - Eli mod - D91] (Eterna round: R96, puzzle: Exclusion 3)",–,–,18.5 nM,–,–,–
"AAAGUGUGAGGAUAUUAGUUGUACGUCAAUAGACGUAUAAGUGAGAAGGCACAUGAGGAUCACCCAUGUUCCUG [Omei Ex4 Mod of Mat's R95 mod of Omei v5] (Eterna round: R97, puzzle: Exclusion 4)",–,99.7 nM,–,21.9 nM,–,–
"AAAUAAAGGUAGGAUAUCGAUUUUAAUUAAUAUCGAGAAGGGUCAACAUGAGGAUCACCCAUGUCAGCAUGUAA [LRO-Excl6-01-Rocketman] (Eterna round: R97, puzzle: Exclusion 6)",–,59.9 nM,–,64.2 nM,–,–
"AAAUAACAAGCAAGAUCCUACAUGAGGAUCACCCAUGUGCUCGUCUUAAUAAGUACUAUCACGAAAGUGAUAGUACA [Mat - Sensor v3 - turn-off var 1 - Eli Mod - D60] (puzzle: Sensor v3, turn-off variant 1)",383 nM,–,–,–,383 nM,437 nM
"AAAUAGAAUGAGGAUAUCGAAUUAUAUAUAGUACGAGAAGGCAUUACAUGAGGAUCACCCAUGUUUUGUUGGGA [JR_Ex6_Sub001] (Eterna round: R97, puzzle: Exclusion 6)",–,73 nM,–,27.6 nM,–,–
"AAAUAGCUUGAGGAUAUUGGACUGGAUUCAGUGCGAGAAGGCAAGACAUGAGGAUCACCCAUGUUGUGUUGGGA [EX6 #10] (Eterna round: R97, puzzle: Exclusion 6)",–,180 nM,–,91.6 nM,–,–
"AAAUAGUAGCAGGAUAUGAGUAUUAUUGGAAGCUCAGAAGGGCUGACAUGAGGAUCACCCAUGUGUUAUGUCGG [Eternabot (L1) Solution 54] (Eterna round: R97, puzzle: Exclusion 6)",–,49.1 nM,–,177 nM,–,–
"AAAUAGUCAGGAUAUACAUGAGGAUCACCCAUGUAAACUUUUAGUUUAAUUUGAAUGUGUAGAAGGGACAUAAA [Ex3 #50] (Eterna round: R97, puzzle: Exclusion 3)",–,31.4 nM,–,29.3 nM,–,–
"AAAUCACAUGAGGAUCACCCAUGUCAGGAUAUCGACUGAACAGCUUCGGCUGUUCAGUCGAGAAGGGACAAUUA [Brourdxlusion 1 - Jieux - Exclusion 1] (Eterna round: R97, puzzle: Exclusion 1)",–,133 nM,–,43.2 nM,–,–
"AAAUCAGAGGAGGAUAUGGUAUAGGAAAUGGUGCCAGAAGGUUUCACAUGAGGAUCACCCAUGUCAAAUAGUGA [EX6 #62] (Eterna round: R97, puzzle: Exclusion 6)",–,49.2 nM,–,60.4 nM,–,–
"AAAUCGGCAGGAUAUACAUGAGGAUCACCCAUGUAAAUUUUUCGUUUAACUUGAAUGUGUAGAAGGGCCAUUAA [Ex3 #64] (Eterna round: R97, puzzle: Exclusion 3)",–,24.8 nM,–,24.6 nM,–,–
"AAAUCGGUAGAGGAUAUUGUACAGGAAACGGUGCAAGAAGGUUACACAUGAGGAUCACCCAUGUUAAAUAGCGA [EX6 #53] (Eterna round: R97, puzzle: Exclusion 6)",–,26.9 nM,–,18.1 nM,–,–
"AAAUCGGUGGAGGAUAUUGUACAGGAAACGGUGCGAGAAGGUUACACAUGAGGAUCACCCAUGUUAAAUAGCGA [EX6 #56] (Eterna round: R97, puzzle: Exclusion 6)",–,25.2 nM,–,22.1 nM,–,–
"AAAUGACAUUAGGAUAUGUAACGCGGUUGCCGCACAGAAGGGAUGACUUGAGGAUCACCCAAGUGACCCAAGGA [Tixebion] (Eterna round: R97, puzzle: Exclusion 6)",–,26.4 nM,–,28.2 nM,–,–
